Measurements reported in publication doi:10.1101/2020.11.24.393629 (bioRxiv, 2020).

What was measured:
SARS-CoV RBD = SARS-CoV RBD (SARS-CoV, GenBank NC_004718.3, UniProt P59594); experiment: BLI
[1] = target: T1, Recombinant RBD protein of SARS-CoV-2 with His tag (SARS-CoV-2, UniProt P0DTC2); experiment: ELISA
[2] = target: SARS-CoV-2 S on 293T cells expressing SARS-CoV-2 S (SARS-CoV-2-S cells) (SARS-CoV-2, UniProt P0DTC2); experiment: flow cytometry on cells
[3] = target: T1, Recombinant RBD protein of SARS-CoV-2 …; experiment: flow cytometry on cells

B1: HB27, humanized anti-SARS-CoV-2 monoclonal antibody (IgG) (antibody, V domains shown)
VH: VKLVESGGGLVKPGGSLRLSCAASGFTFTNYGMSWVRQAPGKRLEWVAEISSGGSYTYYPDTVTGRFTISRDNAKNTLYLQMNSLRAEDTAVYYCARFRYGGGGTVDYWGQGTLVTVSS
VL: IVLTQSPTLSLSPGERATLSCRASESVDNYGISFMNWFQQKPGQAPRLLIYAASNQGSGIPSRFSGSGSGTDFSLTISSLEPEDFAVYFCQQSKEVPRIFGQGTKVEIL
binding result (SARS-CoV RBD): no binding
EC50 [1]: 0.5 nM
EC50 [2]: 5 to 50 nM
EC50 [3]: 5 to 50 nM
